Experimental data published in patent US11160869B2 (priority 2019, dated 2021).

Test system: colonic tissue
Assay: Pan-colonic administration in NHP: colonic biopsies (IL-10, IL-1Ra, pSTAT3/STAT3, cytokines, gene expression)
Format: in vivo, cynomolgus monkeys
Description: IL-10 delivery construct solution (at concentrations of 0.1, 0.3 and 1.0 mg/mL for the low, mid and high-dose groups respectively) was administered via the rectal route using sigmoidoscopy and a syringe connected to a spray nozzle with a 360° spray pattern. Serial biopsy samples were collected by sigmoidoscopy (pre-dose, 0.25, 0.5, 0.75, 8 and 24-28 hours post dose). Serial plasma samples from 0 min pre-dose to between 24-28 hours post-dose were collected for analysis for the IL-10 delivery construct.
Phosphorylation of STAT3 is an early downstream event following IL-10 receptor activation.
Colonic biopsies at each tissue timepoint were analyzed for local concentration of IL-10 delivery construct, total IL-10, IL-1Ra, soluble cytokines, activation of STAT3 and gene expression following administration of the IL-10 delivery construct. […] In addition, STC1, MTNR1A and VNN2 encode proteins that suppress the NFkβ signaling pathway, a pathway through which key pro-inflammatory cytokines are regulated. […] This is consistent with the ability of IL-10 to suppress these cells' activation or differentiation towards a pro-inflammatory immune phenotype.

B1: IL-10 delivery construct: recombinant homodimeric fusion protein: N-terminal methionine, cholix386 domain, polyGlySer spacer, recombinant human IL-10 (protein)
chain: MVEEALNIFDECRSPCSLTPEPGKPIQSKLSIPSDVVLDEGVLYYSMTINDEQNDIKDEDKGESIITIGEFATVRATRHYVNQDAPFGVIHLDITTENGTKTYSYNRKEGEFAINWLVPIGEDSPASIKISVDELDQQRNIIEVPKLYSIDLDNQTLEQWKTQGNVSFSVTRPEHNIAISWPSVSYKAAQKEGSRHKRWAHWHTGLALCWLVPMDAIYNYITQQNCTLGDNWFGGSYETVAGTPKVITVKQGIEQKPVEQRIHFSKGNAMSALAAHRVCGVPLETLARSRKPRDLTDDLSCAYQAQNIVSLFVATRILFSHLDSVFTLNLDEQEPEVAERLSDLRRINENNPGMVTQVLTVARQIYNDYVTHHPGLTPEQTSAGAQAGGGGSGGGGSGGGGSPGQGTQSENSCTHFPGNLPNMLRDLRDAFSRVKTFFQMKDQLDNLLLKESLLEDFKGYLGCQALSEMIQFYLEEVMPQAENQDPDIKAHVNSLGENLKTLRLRLRRCHRFLPCENKSKAVEQVKNAFNKLQEKGIYKAMSEFDIFINYIEAYMTMKIRN
modifications: homodimer
IL-1Ra concentration in colonic tissue (1, 3, 10 mg): not further augmented
total IL-10 in colonic tissue (1, 3, 10 mg): dose-dependent increase in total IL-10
colonic MMP1, MMP3, MMP19 (8 h): also upregulated
colonic TIMP1, tissue repair and anti-microbial genes (8 h): also increased
colonic anti-inflammatory genes (CD163, miR24-2, NOX1 ...) (8 h): upregulated a number of anti-inflammatory genes
colonic pro-inflammatory genes (MHCII, PLA2G2D, CCL20, CCL13) (8 h): decreased a number of pro-inflammatory genes
colonic expression of CYP1A1 (8 h, 12-hour fast prior to treatment): downregulated
colonic tissue pSTAT3/STAT3 (all doses tested): Higher ratios of colonic tissue pSTAT3/STAT3
induction of pro-inflammatory cytokines in colonic tissue (cynomolgus monkey, in vivo): not observed
time of peak total IL-10 in colonic tissue (first sampling time point): 15 min
